Data set [1] has as its target T1, Ago2 (HaloTag-Ago2) (UniProt Q9UKV8 1-859). Briefly: competition filter binding.
Data set [2] concerns the target T1, Ago2 (HaloTag-Ago2). Kind of data set: pull-down.
Data set [3] addresses T2, Ago2 (Flag-tagged, HFT-Ago2) (UniProt Q9UKV8 1-859). Kind of data set: filter binding.
Data set [4] deals with T2, Ago2 (Flag-tagged, HFT-Ago2). Briefly: competition filter binding.
For data set [5] the target is unchanged. Kind of data set: pull-down.
Data set [6] has the same target. Kind of data set: pull-down. The source holds these as a separate data set.

Read-outs that look alike come from different tables or passages of the source.

Experimental findings from article PMC6961540 are described below.

T2 sequence (Q9UKV8 whole entry): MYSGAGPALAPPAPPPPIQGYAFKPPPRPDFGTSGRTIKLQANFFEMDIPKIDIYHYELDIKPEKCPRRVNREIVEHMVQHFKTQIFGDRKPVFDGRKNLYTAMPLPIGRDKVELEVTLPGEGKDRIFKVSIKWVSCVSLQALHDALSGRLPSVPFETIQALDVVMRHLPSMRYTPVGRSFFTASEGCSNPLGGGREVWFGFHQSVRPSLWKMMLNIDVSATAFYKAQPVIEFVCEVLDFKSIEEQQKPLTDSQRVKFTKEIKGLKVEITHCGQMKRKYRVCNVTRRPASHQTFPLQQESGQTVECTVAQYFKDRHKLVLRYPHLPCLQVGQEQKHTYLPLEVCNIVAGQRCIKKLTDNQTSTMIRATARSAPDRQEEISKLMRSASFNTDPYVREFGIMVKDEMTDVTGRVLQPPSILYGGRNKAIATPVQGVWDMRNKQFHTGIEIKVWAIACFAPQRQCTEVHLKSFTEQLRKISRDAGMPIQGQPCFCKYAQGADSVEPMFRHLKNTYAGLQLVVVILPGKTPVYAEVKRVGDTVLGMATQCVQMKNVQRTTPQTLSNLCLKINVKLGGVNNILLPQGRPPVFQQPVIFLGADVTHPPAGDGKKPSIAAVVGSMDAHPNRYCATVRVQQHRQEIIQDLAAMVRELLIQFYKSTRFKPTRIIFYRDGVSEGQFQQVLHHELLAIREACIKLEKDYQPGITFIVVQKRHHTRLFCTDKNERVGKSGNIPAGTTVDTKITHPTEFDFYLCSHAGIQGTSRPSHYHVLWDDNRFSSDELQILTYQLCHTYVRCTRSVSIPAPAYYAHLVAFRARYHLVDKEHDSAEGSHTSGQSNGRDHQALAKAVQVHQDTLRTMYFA
T1 sequence (Q9UKV8 whole entry): as above

B1: miR122-v2 guide / target-2 (seed + sup) (mixed)
RNA 1: UGGAGUGUGACACUAUCGAAAG
RNA 2: AUAGAAAAACACUCCUAA
modifications: 5'-phosphate on guide
In the case of B1, the binding signal in data set [1] is approximately 5 fold bound over target-1.

B2: miR122-v2 guide / target-1 (seed-only) (mixed)
RNA 1: UGGAGUGUGACACUAUCGAAAG
RNA 2: CCGCAAAAAAAAAAACACUCCUAA
modifications: 5'-phosphate on guide
B2: the binding result in data set [2] was “binds”.

B3: miR122-v1 guide / target-1 (seed + sup) (mixed)
RNA 1: UGGAGUGUGACAGCGGCGAAAG
RNA 2: CCGCAAAAAAAAAAACACUCCUAA
modifications: 5'-phosphate on guide
For orientation: Kd means the free concentration of one partner at which half of the binding sites on the other are occupied at equilibrium, for simple one-to-one binding. High values mean a looser complex, low ones a tighter complex. Take B3: the Kd in data set [3] was found to be 5.6 ± 0.5 pM. The molecule also returned a binding signal in data set [4] of approximately 13 fold bound over target-2.

B4: miR122-v1 guide / target-1 with swapped (4 nt) bridge (mixed)
RNA 1: UGGAGUGUGACAGCGGCGAAAG
RNA 2: CCGCAAAAACACUCCUAA
modifications: 5'-phosphate on guide
In the case of B4, the binding result in data set [5] is reported as “binds”.

B5: miR122-v1 guide / target-2 (seed-only) (mixed)
RNA 1: UGGAGUGUGACAGCGGCGAAAG
RNA 2: AUAGAAAAACACUCCUAA
modifications: 5'-phosphate on guide
For B5, in data set [6], the binding result was “binds”.
